assay: yeast display, Sf9 membrane polyspecificity reagent, FACS + sequencing; frameworks hold sequencing errors
In short: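 In a synthetic yeast display library (Saccharomyces cerevisiae BJ5465), nanobody expression was induced with galactose for 36–48 hours. FACS gates were set low and high (top ~1%) using anti-HA fluorescence for expression and streptavidin fluorescence for binding of the Sf9 membrane reagent. Each polyreactivity label is drawn from the gate of origin.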

| Sequence | polyreactivity (PSR sort gate) |
| --- | --- |
| QVQLVESGGGLVQAGGSLRLSCAASGITFAKYAMGWYRQAPGKESELVAAISSSGGRTYYADSVKGRFTISRDNAKNTVYLQMNSLKPEDTAVYYCAADFSGPFDYWGLGTQVTVSS | high polyreactivity |
| QVQLVESGGGLVQAGGSLRLSCAASGITFALYAMGWYRQAPGKERELVAAISYSGGRTYYADSVKGRFTISRDNAKNTVYLQMNSLKPEDTAVYYCAAGGSGSGPYGYGYWGQGTQVTVSS | high polyreactivity |
| QVQLVESGGGLVQAGGSLRLSCAASGITFAYNAMGSYRQAPGKERELVARITSGGRTYYADSVKGRFTISRDNAKNTVYLQMNSLKPEDTAVYYCNAKEGSRYRKYDYWGQGTQVTVSS | low polyreactivity |
| QVQLVESGGGLVQAGGSLRLSCAASGITFAYYVMGWYRQAPGKERELVAAINWSGGSTYYADSVKGRFTISRDNAKNTVYLQMNSLKPEDTAVYYCAADWSTWYGEKFYWGHGTQVTVSS | high polyreactivity |
| QVQLVESGGGLVQAGGSLRLSCAASGITFDENTMGWYRQATGKERELVASISNGGNTYYADSVKGRFTISRDNAKNTVYLQMNSLKPEDSAVYYCAARYGYYYSRYDHWGQGTQVTVSS | low polyreactivity |
| QVQLVESGGGLVQAGGSLRLSCAASGITFDEYAMGWYIQAPGKERELVASISAGSTYYADSVKGRFTISRDNAKNTVYLQMNSLKPEDTAVYYCAVVVDYDAYRYWGYDYWGQGTQVTVSS | high polyreactivity |
| QVQLVESGGGLVQAGGSLRLSCAASGITFDHYVMGWYRQAPGKERELVAAISRRGGSTYYADSVKGRFTISRDNAKNTVYLQMNSLKPEDTAVYYCAADSSKHIGYDSWGQGTQVTVSS | high polyreactivity |
| QVQLVESGGGLVQAGGSLRLSCAASGITFDNNAMGWYRQAPGKEREFVADIDGSGGSTYYADSVKGRFTISRDNAKNTVYLLMNCLKPEDTAVYYCAVVVYYYTYHYWGQGTQVTVSS | low polyreactivity |
| QVQLVESGGGLVQAGGSLRLSCAASGITFDSYAMGWYRQAPGKERELVATISRSGTTTYYADSVKGRFTISRDNAKNTGYLQMNSLKPEDTAVYYCNTLRDYWTYHFYGAVRDGYDYWGQGTQVTVSS | low polyreactivity |
| QVQLVESGGGLVQAGGSLRLSCAASGITFDYYTMGWYRQAPGKERELVAGITRGGRTYYADSVKGRFTISRDNAKNTVYLQMNSLKPEDTAVYYCNADPWWRFDYWGQGTQVTVSS | low polyreactivity |
| QVQLVESGGGLVQAGGSLRLSCAASGITFEPNDMGWYRQAPGKERELVAAISWSGGDTYYADSVKGRFTISRDNAKNTVYLQMNSLKPEDTAVYYCAAESWVAYEYWGQGTQVTVSS | low polyreactivity |
| QVQLVESGGGLVQAGGSLRLSCAASGITFFGYALGWYRQAPGKERELVADITTSDSTYYADSVKGRFTISRDNAKNTVYLQMNSLKPEDTAVYYCNADYYDGGYGPGVEEYDYWGQGTQVTVSS | low polyreactivity |
| QVQLVESGGGLVQAGGSLRLSCAASGITFFGYAMGWYRQAPGKERELVATISRSGGSTSYADSVKGRFTISRDNAKNTVYLQMNSLKPEDTAVYYCNNRTPYLRPIMDYWGQGTQVTVSS | high polyreactivity |
| QVQLVESGGGLVQAGGSLRLSCAASGITFFLYGMGWYRQAPGKERELVAAISWSCASTYADSVKGRFTISRDNAKNTVYLQMNSLKPEDTAVYYCARDDNPIYSGVTYDYWGQGTQVTVSS | low polyreactivity |
| QVQLVESGGGLVQAGGSLRLSCAASGITFFLYTMGWYRQAPGKERELVAAITWRGTSTYYADSVKGRFTISRDNAKNTVYLQMNSLKPEDTGVYYCAARSRRGGYPRYYYWGQGTQVTVSS | high polyreactivity |
| QVQLVESGGGLVQAGGSLRLSCAASGITFFRYAMGWYRQAPGKERELVAAITTSGSSTFYADSVKGRFTISRDNAKNTVYLQMNSLTPEDTAVYYCATDYERYTWVGYLVTYYYWGQGTQVTVSS | high polyreactivity |

| Sequence | polyreactivity (PSR sort gate) |
| --- | --- |
| QVQLVESGGGLVQAGGSLRLSCAASGITFFWYDMGWYRQAPGKERELVASISSGGTTSYADSVKGRFTISRDNAKNTVYLQMNSLKPEDTAVYYCAATHWNRWHFDYWGQGTQVTVSS | low polyreactivity |
| QVQLVESGGGLVQAGGSLRLSCAASGITFFYYAMGWYRQAPGKERELVAAINWSGRTYYADSVKGRFTISRDNAKNTVYLQMNSLKPEDTAVYYCAAVTYGPGVSGMDYWGQGTQVTVSS | low polyreactivity |
| QVQLVESGGGLVQAGGSLRLSCAASGITFGANTMGWYRQAPGKERELVAAITISGGITHYADSVKGRFTISRDNAKNTVYLQMNRLKPEDTAVYYCAAGAYWRLYPYRQRNGGRMYYWGQGTQVTVSS | low polyreactivity |
| QVQLVESGGGLVQAGGSLRLSCAASGITFGAYAMGWYRQAPGKERELVAVITRGADTYYADSVKGRFTISRDNAKNTVYLQMNSLKPEETAVYYCAAQIDLPYYYGSDDDDYWGQGTQVTVSS | high polyreactivity |
| QVQLVESGGGLVQAGGSLRLSCAASGITFGDNARGWYRQAPGKERELVAAISSGGSTDYADSVKGRFTISRDNAKNTVYLQMNSLKPEDTAVYYCAVDWVSVPEYDYWGQGTQVTVSS | low polyreactivity |
| QVQLVESGGGLVQAGGSLRLSCAASGITFGDNTMGWYRQAPGKERELVAAITYSSTSTYYADSVKGRFTISRDNAKNTVYLQMNSLKPEDTAVYYCAAEGPGDVVSTDYDYWGQGTQVTVSS | low polyreactivity |
| QVQLVESGGGLVQAGGSLRLSCAASGITFGGNAMGWYRQAPGKEMELVAAISWNGGRTYYADSVKGRFTISRDNAKNTVYLQMNSLKPEDTAVYYCNTPVFSKSSRKYYYWGQGTQVTVSS | high polyreactivity |
| QVQLVESGGGLVQAGGSLRLSCAASGITFGGYAMGWYRKARGKERELVAAISWRGGRTYYADSVKGRFTISRDNAKNTVYIQMNSLKPDDTAVYYCAVGGTVYSTESDYWGQGTQVTVSS | high polyreactivity |
| QVQLVESGGGLVQAGGSLRLSCAASGITFGPYAMGWYRQAPGKERELVAAITWGGGSTYYADSVKGRFTISRDNAKTTVYLQMNSLKPEDTAVSYCNAEGSTTSRYLPYDYWGQGTQVTVSS | low polyreactivity |
| QVQLVESGGGLVQAGGSLRLSCAASGITFGPYAMGWYRQAPGKERELVATISSSGGSTYYADSVKGRFTISRDNAKNTVYLQMNSLKPEDTAVYYCAAEYYVISSPSFYEYDYWGQGTQVTVSS | low polyreactivity |
| QVQLVESGGGLVQAGGSLRLSCAASGITFGPYAMGWYRQATGKERELVAAINWSGGSTYYADSVKGRFTISRDNAKTTVYLQMNSLKPEDTAVYYCAAEPYKRLYQFYFWGQGTQVTVSS | high polyreactivity |
| QVQLVESGGGLVQAGGSLRLSCAASGITFGQYAMGWYRQAPGKERELVAVITSGGDTYYADSVKGRFTISRDNAKNTVYLQINSLKPEDTAVYYCNADDDLTSIYRYDYWGQGTQVTVSS | low polyreactivity |
| QVQLVESGGGLVQAGGSLRLSCAASGITFGRNAMGWYRQAPGKERELVAAISRGGSTNYADSVKGRFTISRDNAKNTVYLQMNSLKPEDTAVYYCAAQYKYRRYPKVAFEYWGQGTQVTVSS | high polyreactivity |
| QVQLVESGGGLVQAGGSLRLSCAASGITFGRNAMGWYRQAPGKERELVAAISRGGSTNYADSVKGRFTISRDNAKNTVYLQMNSLKPEDTAVYYGNALSWPHGSWIPIHRRYGYWGQGTQVTVSS | high polyreactivity |
| QVQLVESGGGLVQAGGSLRLSCAASGITFGRNTMGWYRQAPGKERELVAAIDSGGNTYADSVKGRFTISRDNAKNTVYLQMNSLKPEDTAVYYCAAVVYAYLYADYDYWGQGTQVTVSS | low polyreactivity |
| QVQLVESGGGLVQAGGSLRLSCAASGITFGRNTMGWYRQAPGKERELVAAIDSGGNTYADSVKGRFTISRDNAKNTVYLQMNSLKPEDTAVYYCAVDGGEFSSYGYWGLGTQVTVSS | low polyreactivity |

— the nanobody polyreactivity screen of Harvey et al. (2022)
